In publication PMC3515690 (Nature structural & molecular biology, 2012):

Key:
Atg7 D47A N50A K53A = target: T1, Atg7 D47A N50A K53A (S. cerevisiae, UniProt P38862 1-630, D47A | N50A | K53A); assay: cross-linking
T1 sequence (looked up): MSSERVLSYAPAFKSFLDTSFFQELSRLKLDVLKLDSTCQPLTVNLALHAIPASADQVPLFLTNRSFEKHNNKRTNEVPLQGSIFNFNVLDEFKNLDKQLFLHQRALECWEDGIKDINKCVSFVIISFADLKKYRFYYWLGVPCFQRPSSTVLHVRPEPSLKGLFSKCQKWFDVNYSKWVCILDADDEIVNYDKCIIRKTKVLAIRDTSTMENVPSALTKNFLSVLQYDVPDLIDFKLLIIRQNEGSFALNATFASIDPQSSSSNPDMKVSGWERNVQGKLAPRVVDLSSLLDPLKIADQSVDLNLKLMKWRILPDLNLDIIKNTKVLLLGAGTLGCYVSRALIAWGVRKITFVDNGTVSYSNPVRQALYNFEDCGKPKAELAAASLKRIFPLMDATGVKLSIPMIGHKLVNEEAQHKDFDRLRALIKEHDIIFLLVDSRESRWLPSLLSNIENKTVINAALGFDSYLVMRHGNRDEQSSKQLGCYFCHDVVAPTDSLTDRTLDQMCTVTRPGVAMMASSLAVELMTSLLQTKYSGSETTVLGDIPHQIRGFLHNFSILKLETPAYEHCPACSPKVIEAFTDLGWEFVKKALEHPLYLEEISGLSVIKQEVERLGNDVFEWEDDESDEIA

Atg7 (residues 1–613) = target: T2, Atg7 (residues 1–613) (S. cerevisiae, UniProt P38862 1-613, catalytic Cys507 linked through bismaleimidoethane (BMOE) to Atg3 Cys234); assay: crystal structure
T2 sequence (looked up): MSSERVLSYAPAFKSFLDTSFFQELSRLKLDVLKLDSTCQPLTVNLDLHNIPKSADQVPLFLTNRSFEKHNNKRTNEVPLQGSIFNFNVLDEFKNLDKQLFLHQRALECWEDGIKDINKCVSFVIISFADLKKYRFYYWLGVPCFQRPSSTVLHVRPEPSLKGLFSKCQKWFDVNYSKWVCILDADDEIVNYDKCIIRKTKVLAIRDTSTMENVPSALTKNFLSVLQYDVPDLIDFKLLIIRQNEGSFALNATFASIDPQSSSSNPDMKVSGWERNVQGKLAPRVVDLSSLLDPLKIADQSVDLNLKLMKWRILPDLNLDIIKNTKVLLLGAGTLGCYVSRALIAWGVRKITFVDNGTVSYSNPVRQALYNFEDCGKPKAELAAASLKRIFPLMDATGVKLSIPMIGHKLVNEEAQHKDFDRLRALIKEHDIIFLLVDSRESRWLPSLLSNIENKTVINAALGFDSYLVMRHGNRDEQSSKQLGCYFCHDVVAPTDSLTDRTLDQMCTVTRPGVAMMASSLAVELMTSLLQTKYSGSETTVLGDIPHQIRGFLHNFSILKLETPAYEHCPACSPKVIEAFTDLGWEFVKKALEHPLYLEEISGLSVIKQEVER

binding result (Atg7 D47A N50A K53A): binds | binding result (Atg7 (residues 1–613)): binds
B1: Atg3(C41A C76A C83A) (enzyme, S. cerevisiae)
chain: MIRSTLSSWREYLTPITHKSTFLTTGQITPEEFVQAGDYLAHMFPTWKWNEESSDISYRDFLPKNKQFLIIRKVPADKRAEQAVEVEGPDVIMKGFAEDGDEDDVLEYIGSETEHVQSTPAGGTKDSSIDDIDELIQDMEIKEEDENDDTEEFNAKGGLAKDMAQERYYDLYIAYSTSYRVPKMYIVGFNSNGSPLSPEQMFEDISADYRTKTATIEKLPFYKNSVLSVSIHPCKHANVMKILLDKVRVVRQRRRKELQEEQELDGVGDWEDLQDDIDDSLRVDQYLIVFLKFITSVTPSIQHDYTMEGW
modifications: Cys234 reacted with bismaleimidoethane (BMOE)
